In the supplement of paper PMC10567573:
± gives the standard deviation.

Test: protein stability index of a GFP-peptide fusion (GPS, HEK-293T) (PSI 1-6); higher = more stable
Details: c terminus: a fixed tail appended
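Further: 24-mer peptide tiles fused after GFP, lentivirally expressed, FACS-sorted into six equal bins by GFP/DsRed ratio, decoded by Illumina sequencing, PSI is the read-weighted mean bin number.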

Sequence | protein stability index (treatment: DMSO) | protein stability index (treatment: MLN4924 1 uM, 8 h)
RLDGQQEPQPFVTSDVYSSDAAFG [MYORG] | 4.56 ± 0.26 | 4.63 ± 0.14
ETALTLACCGGFLEVADFLIKAGA [ANKRD17] | 2.54 ± 0.9 | 2.65 ± 0.76
EKPPRPEAKSAQPADGWKGERPRS [GCH1] | 5.2 ± 0.2 | 5.21 ± 0.11
VYLHFLSVVTEDGPEPKDKGSLPQ [ZNF232] | 2.27 ± 0.18 | 2.35 ± 0.33
MWDTKTLGLRQHHCRKCGQAVCGK [WDFY1] | 3.21 ± 0.25 | 3.4 ± 0.27
VGDIVSFMHSFEEKYGRAHPVFYQ [FAF2] | 2.04 ± 0.34 | 2.17 ± 0.22
AVSQPFRLSSSLQGSAVTLKTSKM [CDC14A] | 3.77 ± 0.3 | 3.71 ± 0.28
VILISRISSVGGEAMFCDFPKINH [CFHR2] | 3.66 ± 1.3 | 2.97 ± 0.21
LATQEPTDNQVRLRKRKEIREDRD [DLC1] | 5.41 ± 0.24 | 5.39 ± 0.16
VASFKFDAGEVSYLPRDFSTYRPL [MYORG] | 2.28 ± 0.37 | 2.54 ± 0.17
PGDMKTKMELLILETQAQVCQALA [CPOX] | 2.31 ± 0.26 | 2.37 ± 0.34
SSFLSFAELFSYVLQDRAAKGSLG [FEM1A] | 2.58 ± 0.35 | 2.55 ± 0.81
NVISELNIEDYFSHHLAVYNSPQF [FBXO39] | 2.31 ± 0.29 | 2.32 ± 0.34
NCMAEKRETVLIETQLKACASFIR [C8orf76] | 2.23 ± 0.32 | 2.25 ± 0.45
LRFLLDQVQLGLRCCGAASYQDWQ [TSPAN10] | 3.05 ± 0.49 | 3.22 ± 0.49
ILKRKWWKYILLGLADVEANYVIV [SLC35F2] | 2.55 ± 0.5 | 2.23 ± 0.76
DTSMDGTEPPQNPVTPLGLQNEVP [SERTAD3] | 5.4 ± 0.19 | 5.38 ± 0.34
YMVIEEGGMNHSAFPQTPFKTGNS [KCNA3] | 3.27 ± 0.17 | 3.22 ± 0.61
MIEDNKENKDHSLERGRASLIFSL [TPH1] | 3.25 ± 0.36 | 3.36 ± 0.18
PRICQRNLMSLLMAVRPSLPESGL [FANCE] | 2.4 ± 0.6 | 2.21 ± 0.27
QLSHIKAKIRAKIPGTGALASAAA [RTN2] | 3.07 ± 0.21 | 3.09 ± 0.41
KEISDDEAEEEKGEKEEEDKDDEE [HSP90AB1] | 5.66 ± 0.34 | 5.68 ± 0.19

Sequence | protein stability index (treatment: DMSO) | protein stability index (treatment: MLN4924 1 uM, 8 h)
VPAPEAFRDPIWSTWALYGRAVDQ [MYORG] | 2.66 ± 0.38 | 2.61 ± 0.34
LEHGSIYIPSSYVDSHHEYPAMTF [ESR2] | 2.19 ± 0.18 | 2.06 ± 0.56
RMKETQKSIYYITGESKEQVANSA [HSP90AB1] | 4.07 ± 0.34 | 4.2 ± 0.25
LREAVPGILRARRGEGIQAPSFSS [SOAT2] | 3.4 ± 0.29 | 3.44 ± 0.35
TNGSFSPSGNNGSVNWRTGSFHGP [DLC1] | 3.09 ± 0.3 | 3.11 ± 0.23
LYHNVEGFTDRREARKYASNLLKA [DVL3] | 3.39 ± 0.071 | 3.49 ± 0.22
CPLTPGPGKALGPAATMAVELHYE [C2CD2L] | 3.67 ± 0.14 | 3.76 ± 0.28
MTGRAMDPLPAAAVGAAAEAEADE [SNX8] | 5.52 ± 0.3 | 5.78 ± 0.12
TPYPNLYPDQSPSEDWTMEERFRP [CLCN6] | 3.85 ± 0.26 | 4.07 ± 0.15
SYAHSVEDTHVQIGQVHEEFKQNI [FCHO1] | 4.55 ± 0.25 | 4.7 ± 0.081
DSACDESSCIPKAFGNPKFALQGL [IRX6] | 3.62 ± 0.24 | 3.6 ± 0.23
QQCQYRWLRVLNPDLVKGPWTKEE [MYBL2] | 2.83 ± 0.38 | 2.9 ± 0.29
SKGQPRSQEESEEGEEDATSEVDK [CHGB] | 5.59 ± 0.21 | 5.4 ± 0.19
SLQPRRSIAFRLRLASFDSSGKLI [GMCL1] | 2.62 ± 0.44 | 2.39 ± 0.27
FTSSPSPFSSSSPENVEDSGLDSP [FCHO1] | 2.86 ± 0.94 | 3.81 ± 0.87
SEDGSYGTDVTRCICGFTHDDGYM [KMT2E] | 3.33 ± 0.42 | 3.36 ± 0.34
GAVVLGAESHASKDVAIDMMDSRT [STX5] | 4.67 ± 0.2 | 4.64 ± 0.44
NGSMAMGTVPGQAPRLAVAVPAVT [LYSMD4] | 3.77 ± 0.43 | 4 ± 0.23
RQETVDCLKKFNARRKLKGAILTT [CAMK2A] | 3.15 ± 0.26 | 3.33 ± 0.24
ATGDYLFEPHSGEDYSRDEDHIAH [SRPK2] | 5.23 ± 0.2 | 5.28 ± 0.27
YCFMIAYGTQRTLILESQNWRYAT [FUT8] | 3.46 ± 0.51 | 3.28 ± 0.27
HSMRNSLESTLAETEARYSSQLAQ [KRT36] | 4.53 ± 0.22 | 4.57 ± 0.17

Sequence | protein stability index (treatment: DMSO) | protein stability index (treatment: MLN4924 1 uM, 8 h)
KRLKHKDDSVMKATQQARKRNFIS [C22orf31] | 4.11 ± 0.27 | 4.19 ± 0.23
ASEPLPWDLRFRIIHETAVGMNFL [RIPK4] | 2.43 ± 0.15 | 2.33 ± 0.19
ASYDKTVRAWDLETGKLLWKVRYD [WDR88] | 2.31 ± 0.4 | 2.14 ± 0.31
GVLEAPDTQVNPVGSVSVDCGPSR [FBXO34] | 5.03 ± 0.31 | 4.89 ± 0.6
LDGHTISDLSRSSRGELIPISPST [MYBL2] | 4.14 ± 0.13 | 4.33 ± 0.3
RCVSFQARFAEKEELMLVHSLEYI [HDAC6] | – | 2.19 ± 0.3
EELKAELVQLEDEITTLRQVLSAK [TPD52L1] | 4.34 ± 0.32 | 4.22 ± 0.28
NGMNAVMMHGRSYSLASGAGGGGS [RAB40C] | 3.19 ± 0.26 | 3.34 ± 0.34
RPRGKERHKSGVHQPPQAGAGDVV [LYSMD4] | 5.07 ± 0.27 | 5.07 ± 0.057
GELSPEQPSFEPTKNKELTDEFRE [FADS1] | 5.52 ± 0.33 | 5.38 ± 0.18
TTLKGHEGSVACLWWDPIQRLLFS [WDFY1] | 2.08 ± 0.27 | 2.35 ± 0.39
NSQALLLHSSILTCTLLLLYSLAP [MFSD9] | 3.23 ± 0.12 | 3.08 ± 0.52
DSGQYWPSIYHTMASPCSAMAYHH [WDFY1] | 2.34 ± 0.2 | 2.38 ± 0.13
LDAMNYHLMPFRQHCRQSLASRIR [KLHL14] | 2.48 ± 0.46 | 2.2 ± 0.24
SGEVLNGAAVVRPPGHHAEQDAAC [HDAC6] | 5.32 ± 0.31 | 5.13 ± 0.14
MGGTTSTRRVTFEADENENITVVK [CHCHD3] | 4.95 ± 0.27 | 5.11 ± 0.21
QGNSVDRMAAPRAEALFDFTGNSK [NCF4] | 4.7 ± 0.15 | 4.79 ± 0.17
CFARKSQLTGHQRIHSGEEPHKCP [ZNF449] | 3.64 ± 0.1 | 4.01 ± 0.18
LRCRKEFYQLVWSALPFITYLENK [POP5] | 2.41 ± 0.9 | 2.07 ± 0.17
EQMKVYKCEHCRVLFLDHVMYTIH [IKZF1] | 2.37 ± 0.34 | 2.23 ± 0.41
TELPELLKLYYRRLFPYSQYYRWL [PRIM1] | 2.93 ± 0.79 | 2.47 ± 0.67
